The results in this text go back to US20230040568A1 (ALBERT EINSTEIN COLLEGE OF MEDICINE, published 2023).

Test [1] has as its target T1, KIR3DL1 expressed on 3T3 cells (UniProt P43629 22-444, limits assumed).
T1 construct: whole, on cells
Description: FACS, HHLA2-Ig staining of 3T3 cells expressing KIR3DL1 (FIG. 2A). From the text: (§1) FIG. 2A depicts histograms of 3T3 cell lines expressing KIR3DL1, KIR3DL2, or KIR3DL3 stained with HHLA2-Ig fusion polypeptide (open histograms) or control Ig (shaded histograms). FIG. 2B depicts a plot showing results of an intercellular conjugate assay that indicate 3T3 cell line expressing HHLA2 bound to 3T3 cell line expressing KIR3DL3, but not the control 3T3 cell line. FIG. 2C depicts histograms of a 3T3 cell line expressing HHLA2 bound by the DO domain (red) and the whole extracellular portion (red) of KIR3DL3.
(§2) Subsequent studies reported that HHLA2 is over-expressed in various types of human cancers (Cheng 2018; Cheng 2017; Koirala 2016; Janakiram 2015). To test the binding of HHLA2 to KIR3DL1, KIR3DL2, and KIR3DL3, 3T3 cell lines stable expressing cell surface KIR3DL1, KIR3DL2, or KIR3DL3 were generated.
Background: In flow cytometry, cells or beads pass a laser one at a time.

Test [2] deals with T2, KIR3DL3 expressed on cells (3T3 cell line expressing KIR3DL3); KIR3DL3+ NK92 cells; primary KIR3DL3+ NK cells … (human, UniProt Q8N743 26-410).
T2 construct: also called KIR3DL3-expressing 3T3 cells; KIR3DL3 WT
Description: FACS, HHLA2-Ig staining of 3T3 cells expressing KIR3DL3 (FIG. 2A).
From the text: as §1, §2

The target of test [3] is T3, KIR3DL2 expressed on 3T3 cells (UniProt P43630 22-455, limits assumed).
T3 construct: whole, on cells
Description: FACS, HHLA2-Ig staining of 3T3 cells expressing KIR3DL2 (FIG. 2A).
From the text: as §1, §2

Test [4] has as its target T4, HHLA2 expressed on cells (3T3 cell line expressing HHLA2; HHLA2/K562) (UniProt Q9UM44 23-414, limits assumed).
T4 construct: whole, on cells
T4 sequence (looked up): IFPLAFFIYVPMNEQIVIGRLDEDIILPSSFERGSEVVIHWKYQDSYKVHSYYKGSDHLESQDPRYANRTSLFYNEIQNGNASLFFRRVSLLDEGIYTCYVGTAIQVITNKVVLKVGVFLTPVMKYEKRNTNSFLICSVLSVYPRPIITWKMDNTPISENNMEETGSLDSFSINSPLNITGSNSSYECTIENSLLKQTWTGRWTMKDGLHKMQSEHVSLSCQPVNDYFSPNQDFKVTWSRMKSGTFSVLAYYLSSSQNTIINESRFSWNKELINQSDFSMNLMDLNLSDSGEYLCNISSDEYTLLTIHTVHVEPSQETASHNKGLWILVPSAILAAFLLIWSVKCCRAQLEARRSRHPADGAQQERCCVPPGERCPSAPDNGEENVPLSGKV
Description: FACS on 3T3 cells expressing HHLA2, TMIGD2-mIg (FIGS. 3A-3B). The method, then: FIG. 3A is a chart depicting mean fluorescent intensity (MFI) of 3T3 cells expressing HHLA2 that were incubated with TMIGD2-mIg fusion polypeptide or control mIgG at the indicated concentrations prior to staining with 10 μg/ml KIR3DL3-hIg followed by Allophycocyanin (APC)-conjugated anti-human IgG Fc.
FIG. 3B is a chart depicting MFI of 3T3 cells expressing HHLA2 that were incubated with KIR3DL3-hIg fusion polypeptide or control hIgG at the indicated concentrations prior to staining with 10 μg/ml TMIGD2-mIg followed by APC anti-mouse IgG Fc.

T3 sequence (P43630 22-455 limits assumed): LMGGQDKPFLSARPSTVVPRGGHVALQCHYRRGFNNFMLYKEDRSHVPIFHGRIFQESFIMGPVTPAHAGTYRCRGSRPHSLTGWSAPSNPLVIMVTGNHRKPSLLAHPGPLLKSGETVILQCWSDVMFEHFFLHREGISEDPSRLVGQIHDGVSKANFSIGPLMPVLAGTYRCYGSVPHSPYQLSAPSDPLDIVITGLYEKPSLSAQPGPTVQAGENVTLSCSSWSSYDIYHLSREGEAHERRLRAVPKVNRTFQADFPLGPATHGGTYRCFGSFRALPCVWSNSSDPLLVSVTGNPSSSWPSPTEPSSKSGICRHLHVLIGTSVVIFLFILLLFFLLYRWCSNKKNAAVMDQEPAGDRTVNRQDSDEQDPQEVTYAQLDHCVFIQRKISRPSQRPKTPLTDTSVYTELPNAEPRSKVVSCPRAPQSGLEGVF
T1 sequence (P43629 22-444 limits assumed): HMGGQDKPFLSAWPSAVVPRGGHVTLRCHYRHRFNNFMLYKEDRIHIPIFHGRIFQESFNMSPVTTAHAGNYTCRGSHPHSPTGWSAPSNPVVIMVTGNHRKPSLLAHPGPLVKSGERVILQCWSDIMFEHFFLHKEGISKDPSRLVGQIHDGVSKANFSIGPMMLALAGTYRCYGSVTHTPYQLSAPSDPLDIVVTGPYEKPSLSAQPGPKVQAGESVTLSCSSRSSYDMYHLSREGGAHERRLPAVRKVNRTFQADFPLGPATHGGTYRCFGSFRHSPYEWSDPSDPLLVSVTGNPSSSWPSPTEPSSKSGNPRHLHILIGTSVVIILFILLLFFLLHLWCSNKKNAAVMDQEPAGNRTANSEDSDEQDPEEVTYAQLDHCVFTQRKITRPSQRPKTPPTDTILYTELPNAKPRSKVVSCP
T2 sequence (Q8N743 26-410 H321N): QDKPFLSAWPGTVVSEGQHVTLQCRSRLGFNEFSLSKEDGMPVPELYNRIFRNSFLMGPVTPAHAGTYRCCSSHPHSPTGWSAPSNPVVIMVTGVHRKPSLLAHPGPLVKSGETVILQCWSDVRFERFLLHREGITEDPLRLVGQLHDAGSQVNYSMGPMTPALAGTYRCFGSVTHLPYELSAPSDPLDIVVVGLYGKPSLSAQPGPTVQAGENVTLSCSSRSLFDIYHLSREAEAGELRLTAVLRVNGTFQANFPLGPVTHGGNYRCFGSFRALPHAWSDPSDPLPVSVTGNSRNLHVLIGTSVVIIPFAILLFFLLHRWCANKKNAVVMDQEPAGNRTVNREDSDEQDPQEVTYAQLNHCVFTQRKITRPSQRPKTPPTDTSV

B1: HHLA2-Ig fusion polypeptide (Fc fusion, UniProt Q9UM44 23-344, looked up)
chain: IFPLAFFIYVPMNEQIVIGRLDEDIILPSSFERGSEVVIHWKYQDSYKVHSYYKGSDHLESQDPRYANRTSLFYNEIQNGNASLFFRRVSLLDEGIYTCYVGTAIQVITNKVVLKVGVFLTPVMKYEKRNTNSFLICSVLSVYPRPIITWKMDNTPISENNMEETGSLDSFSINSPLNITGSNSSYECTIENSLLKQTWTGRWTMKDGLHKMQSEHVSLSCQPVNDYFSPNQDFKVTWSRMKSGTFSVLAYYLSSSQNTIINESRFSWNKELINQSDFSMNLMDLNLSDSGEYLCNISSDEYTLLTIHTVHVEPSQETASHN
notes: also called HHLA2 protein; not shown: Ig part
Consider B1, for which the binding result in test [1] is recorded as “no binding”; in test [2] it was “binds”; in test [3] it was “no binding”.

B2: TMIGD2-mIg fusion polypeptide (Fc fusion, UniProt Q96BF3 23-150, looked up)
chain: LSVQQGPNLLQVRQGSQATLVCQVDQATAWERLRVKWTKDGAILCQPYITNGSLSLGVCGPQGRLSWQAPSHLTLQLDPVSLNHSGAYVCWAAVEIPELEEAEGNITRLFVDPDDPTQNRNRIASFPG
notes: not shown: mouse Ig part (mIg), detected with anti-mouse IgG Fc
Consider B2, for which the binding result in test [4] is recorded as “binds”.
